Results published in article PMC5007037.

Molecular target: FcαRI (CD89) (human (endogenous in primary monocytes)) (UniProt P24071)
Sequence of UniProt P24071 (P24071 22-287): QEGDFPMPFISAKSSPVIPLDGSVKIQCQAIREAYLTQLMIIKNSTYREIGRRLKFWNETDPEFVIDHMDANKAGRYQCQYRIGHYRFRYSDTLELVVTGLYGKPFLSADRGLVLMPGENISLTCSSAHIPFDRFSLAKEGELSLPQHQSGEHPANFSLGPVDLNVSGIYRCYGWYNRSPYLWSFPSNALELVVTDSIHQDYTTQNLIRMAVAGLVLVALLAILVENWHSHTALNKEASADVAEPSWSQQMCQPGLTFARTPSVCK

CH31 dIgA2 (antibody)
percent blocking of IgA-mediated phagocytosis of 0.2 μm ConSgp140-conjugated beads by primary monocytes pre-incubated with 5 μg/ml anti-human CD89 mAb (MIP8a): 91.5% | percent blocking of IgA-mediated phagocytosis of ConSgp140CFI-conjugated 1 μm beads by primary monocytes pre-incubated with anti-human CD89 mAb (MIP8a) at 1, 5 and 25 μg/ml (70%, 74%, 78%): 78%
